Measured values from patent US20140178854A1.

What was measured:
[1] = target: gp70 env protein of amphotropic MLV (4070A envelope), on purified viral particles (amphotropic murine leukemia virus (4070A envelope)); test: ELISA on plate-bound MLV, dilution factor 156250, Exp074-DTV Plate 1
[2] = target: gp70 env protein of amphotropic MLV (4070A envelope), on purified viral particles (amphotropic murine leukemia virus (4070A envelope)); test: ELISA on plate-bound MLV, dilution factor 50, Exp122-Ana Plate 2
[3] = target: gp70 env protein of amphotropic MLV (4070A envelope), on purified viral particles (amphotropic murine leukemia virus (4070A envelope)); test: ELISA on plate-bound MLV, dilution factor 1250, Exp125-Ana Plate 1
[4] = target: gp70 env protein of amphotropic MLV (4070A envelope), on purified viral particles (amphotropic murine leukemia virus (4070A envelope)); test: ELISA on plate-bound MLV, dilution factor 10, Exp125-Ana Plate 1
[5] = target: gp70 env protein of amphotropic MLV (4070A envelope), on purified viral particles (amphotropic murine leukemia virus (4070A envelope)); test: ELISA on plate-bound MLV, dilution factor 10, Exp074-DTV Plate 1
[6] = target: gp70 env protein of amphotropic MLV (4070A envelope), on purified viral particles (amphotropic murine leukemia virus (4070A envelope)); test: ELISA on plate-bound MLV, dilution factor 156250, Exp121-Ana Plate 2
[7] = target: gp70 env protein of amphotropic MLV (4070A envelope), on purified viral particles (amphotropic murine leukemia virus (4070A envelope)); test: ELISA on plate-bound MLV, dilution factor 250, Exp072-DTV Plate 2
[8] = target: gp70 env protein of amphotropic MLV (4070A envelope), on purified viral particles (amphotropic murine leukemia virus (4070A envelope)); test: ELISA on plate-bound MLV, dilution factor 50, Exp125-Ana Plate 2
[9] = target: gp70 env protein of amphotropic MLV (4070A envelope), on purified viral particles (amphotropic murine leukemia virus (4070A envelope)); test: ELISA on plate-bound MLV, dilution factor 31250, inter-assay mean of six experiments
[10] = target: gp70 env protein of amphotropic MLV (4070A envelope), on purified viral particles (amphotropic murine leukemia virus (4070A envelope)); test: ELISA on plate-bound MLV, dilution factor 781250, Exp121-Ana Plate 1
[11] = target: gp70 env protein of amphotropic MLV (4070A envelope), on purified viral particles (amphotropic murine leukemia virus (4070A envelope)); test: ELISA on plate-bound MLV, dilution factor 6250, Exp121-Ana Plate 1
[12] = target: gp70 env protein of amphotropic MLV (4070A envelope), on purified viral particles (amphotropic murine leukemia virus (4070A envelope)); test: ELISA on plate-bound MLV, dilution factor 250, Exp074-DTV Plate 1
[13] = target: gp70 env protein of amphotropic MLV (4070A envelope), on purified viral particles (amphotropic murine leukemia virus (4070A envelope)); test: ELISA on plate-bound MLV, dilution factor 156250, Exp125-Ana Plate 1
[14] = target: gp70 env protein of amphotropic MLV (4070A envelope), on purified viral particles (amphotropic murine leukemia virus (4070A envelope)); test: ELISA on plate-bound MLV, dilution factor 31250, Exp072-DTV Plate 1
[15] = target: gp70 env protein of amphotropic MLV (4070A envelope), on purified viral particles (amphotropic murine leukemia virus (4070A envelope)); test: ELISA on plate-bound MLV, dilution factor 781250, Exp122-Ana Plate 1
[16] = target: gp70 env protein of amphotropic MLV (4070A envelope), on purified viral particles (amphotropic murine leukemia virus (4070A envelope)); test: ELISA on plate-bound MLV, dilution factor 50, Exp072-DTV Plate 1
[17] = target: gp70 env protein of amphotropic MLV (4070A envelope), on purified viral particles (amphotropic murine leukemia virus (4070A envelope)); test: ELISA on plate-bound MLV, dilution factor 250, Exp121-Ana Plate 2
[18] = target: gp70 env protein of amphotropic MLV (4070A envelope), on purified viral particles (amphotropic murine leukemia virus (4070A envelope)); test: ELISA on plate-bound MLV, dilution factor 250, Exp125-Ana Plate 2
[19] = target: gp70 env protein of amphotropic MLV (4070A envelope), on purified viral particles (amphotropic murine leukemia virus (4070A envelope)); test: ELISA on plate-bound MLV, dilution factor 31250, Exp121-Ana Plate 1
[20] = target: gp70 env protein of amphotropic MLV (4070A envelope), on purified viral particles (amphotropic murine leukemia virus (4070A envelope)); test: ELISA on plate-bound MLV, dilution factor 1250, Exp122-Ana Plate 1
[21] = target: gp70 env protein of amphotropic MLV (4070A envelope), on purified viral particles (amphotropic murine leukemia virus (4070A envelope)); test: ELISA on plate-bound MLV, dilution factor 250, Exp122-Ana Plate 2
[22] = target: gp70 env protein of amphotropic MLV (4070A envelope), on purified viral particles (amphotropic murine leukemia virus (4070A envelope)); test: ELISA on plate-bound MLV, dilution factor 1250, Exp125-Ana Plate 2
[23] = target: gp70 env protein of amphotropic MLV (4070A envelope), on purified viral particles (amphotropic murine leukemia virus (4070A envelope)); test: ELISA on plate-bound MLV, dilution factor 50, Exp122-Ana Plate 1
[24] = target: gp70 env protein of amphotropic MLV (4070A envelope), on purified viral particles (amphotropic murine leukemia virus (4070A envelope)); test: ELISA on plate-bound MLV, dilution factor 781250, Exp122-Ana Plate 2
[25] = target: gp70 env protein of amphotropic MLV (4070A envelope), on purified viral particles (amphotropic murine leukemia virus (4070A envelope)); test: ELISA on plate-bound MLV, dilution factor 6250, Exp122-Ana Plate 2
[26] = target: gp70 env protein of amphotropic MLV (4070A envelope), on purified viral particles (amphotropic murine leukemia virus (4070A envelope)); test: ELISA on plate-bound MLV, dilution factor 50, Exp072-DTV Plate 2

gp70 env protein of amphotropic MLV (4070A envelope), on purified viral particles (amphotropic murine leukemia virus (4070A envelope)), sequence (P21995 whole entry): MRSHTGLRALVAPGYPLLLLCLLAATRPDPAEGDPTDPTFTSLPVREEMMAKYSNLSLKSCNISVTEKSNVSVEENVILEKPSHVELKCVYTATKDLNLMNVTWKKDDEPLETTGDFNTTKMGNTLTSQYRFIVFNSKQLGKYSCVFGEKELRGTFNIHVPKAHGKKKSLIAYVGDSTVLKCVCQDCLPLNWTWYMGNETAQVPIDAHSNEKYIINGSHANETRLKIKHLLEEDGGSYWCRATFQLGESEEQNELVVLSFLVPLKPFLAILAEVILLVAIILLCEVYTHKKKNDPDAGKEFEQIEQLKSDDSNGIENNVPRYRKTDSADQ

Substance: 83A25 monoclonal antibody (rat IgG2a, anti-gp70)
- Mean OD [1]: 0.145 OD
- Mean OD [2]: 1.89 OD
- Mean OD [3]: 1.44 OD
- Mean OD [4]: 2.17 OD
- Mean OD [5]: 2.25 OD
- Mean OD [6]: 0.159 OD
- Mean OD [7]: 1.56 OD
- Mean OD [8]: 1.96 OD
- Mean OD (inter-assay mean) [9]: 0.259 OD
- Mean OD [10]: 0.137 OD
- Mean OD [11]: 0.903 OD
- Mean OD [12]: 1.92 OD
- Mean OD [13]: 0.136 OD
- Mean OD [14]: 0.202 OD
- Mean OD [15]: 0.162 OD
- Mean OD [16]: 1.75 OD
- Mean OD [17]: 2.25 OD
- Mean OD [18]: 1.88 OD
- Mean OD [19]: 0.322 OD
- Mean OD [20]: 1.48 OD
- Mean OD [21]: 1.7 OD
- Mean OD [22]: 1.44 OD
- Mean OD [23]: 2.01 OD
- Mean OD [24]: 0.141 OD
- Mean OD [25]: 0.643 OD
- Mean OD [26]: 1.86 OD
